Our source for the Kd, binding result and IC50 values is article PMC11780864, “RNA G-quadruplex structure-based PROTACs for targeted DHX36 protein degradation and gene activity modulation in mammalian cells”.

As usually defined, the Kd is the equilibrium constant for the complex coming apart. What is called IC50 is the concentration at which inhibition is half-maximal. High values mean weaker potency, low ones greater potency.

In series [1] the target is T1, RHAU53 peptide (DHX36 fragment) (UniProt Q9H2U1).
T1 chain: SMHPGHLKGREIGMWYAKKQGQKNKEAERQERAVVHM
Description: EMSA; EMSA and MST: 25 mM Tris-HCl pH 7.5, 150 mM KCl, 1 mM MgCl2, 37 C 30 min; 30 nM (EMSA) or 40 nM (MST) FAM-oligo; EMSA gel 10% native PAGE, 0.5x TBE, 4 C. Particulars: label: 3'-FAM; for binding result: non-G4. For orientation: Mobility shift assays separate free from complexed probe on a gel.

Series [2] concerns the target T1, RHAU53 peptide (DHX36 fragment). Briefly: EMSA; Kd1, first shift; EMSA and MST: 25 mM Tris-HCl pH 7.5, 150 mM KCl, 1 mM MgCl2, 37 C 30 min; 30 nM (EMSA) or 40 nM (MST) FAM-oligo; EMSA gel 10% native PAGE, 0.5x TBE, 4 C. As to conditions: label: 3'-FAM; G4.
The target is the same in series [3]. Description: competition; EMSA vs 30 nM FAM_dG4_A, 100 nM RHAU53; EMSA and MST: 25 mM Tris-HCl pH 7.5, 150 mM KCl, 1 mM MgCl2, 37 C 30 min; 30 nM (EMSA) or 40 nM (MST) FAM-oligo; EMSA gel 10% native PAGE, 0.5x TBE, 4 C. Particulars: G4.

In series [1] (G4), GGGUUGCGGAGGGUGGGCCU (structured_RNA, 5'-hexynyl) [FAM_rG4 (5' Hexynyl_hTERC rG4 WT_3' FAM)] showed a Kd of 66.7 ± 16.5 nM.

For TTGTGTGTGTGTGTGTGT (ssDNA, 5'-hexynyl clicked to AHPC-PEG2) [FAM_dG4 mut_A], the binding result in series [1] was “no binding”.

For GGGUUGCGGAGGGUGGGCCU (structured_RNA, 5'-hexynyl clicked to pomalidomide-C6) [FAM_rG4_P_C6], the Kd in series [2] was 160 ± 26.2 nM.

For GGGUUGCGGAGGGUGGGCCU (structured_RNA, 5'-hexynyl clicked to pomalidomide-PEG1-C2) [FAM_rG4_P_PEG1-C2], the Kd in series [2] is 174 ± 35.3 nM.

GGGUUGCGGAGGGUGGGCCU (structured_RNA, 5'-hexynyl clicked to AHPC-PEG2) [rG4_A (unlabelled)] registered an IC50 in series [3] of 176.8 ± 1 nM.

In the case of GGGUUGCGGAGGGUGGGCCU (structured_RNA, 5'-hexynyl clicked to AHPC-C6) [FAM_rG4_A_C6], in series [2], the Kd is 70.3 ± 9.3 nM.

On to GAGUUGCGGAGAGUGAGCCU (ssRNA, 5'-hexynyl clicked to AHPC-PEG2) [FAM_rG4 mut_A], for which the binding result in series [1] is on record as “no binding”.

On to GGGUUGCGGAGGGUGGGCCU (structured_RNA, 5'-hexynyl clicked to AHPC-PEG2 (VHL ligand)) [FAM_rG4_A_PEG2 (FAM_rG4_A)], for which, in series [2], the dissociation constant Kd is 67.5 ± 13.2 nM.

On to TTGGGTGGGTGGGTGGGT (structured_DNA, 5'-hexynyl clicked to AHPC-PEG2) [FAM_dG4_A (T95-2T)], for which, in series [2], the Kd was found to be 317 ± 45.1 nM.

Consider GGGUUGCGGAGGGUGGGCCU (structured_RNA, 5'-hexynyl clicked to pomalidomide-PEG2) [FAM_rG4_P_PEG2], for which the Kd in series [2] was found to be 132 ± 25.5 nM.
